The values below come from PMC12833424.

pKd: −log10 of the molar value.

In the first series the test system is IgG1-DS5 (human IgG1/kappa framework, scFv phage library derived). Briefly: SPR steady state. The settings on record: 2'-O-methyl; ELISA: streptavidin or anti-FAM plates, PBS/0.05% Tween 20 washes, BSA or Blotto block; EMSA: PBS, 1 h, room temperature, 20 uM oligo, 25 ng/uL IgG, 5% ….
“UUUUUCCUGUGUCCUGAAGAAAGCA / UUUCUUCAG [T2 duplex without biotin]” gave a negative-log Kd (pKd) of 6.36.

The series is the same for the next values; noted with them: all 2'-O-methyl, 5' BCN on strand 2, 3' azide on strand 3, reacting to triazole, ELISA: streptavidin or anti-FAM plates, PBS/0.05% Tween 20 washes, BSA or Blotto block, EMSA: PBS, 1 h, room temperature, 20 uM oligo, 25 ng/uL IgG.
Take “UUUUUCCUGUGUCCUGAAGAAAGCAAAGACAUCUGGACAU / UUUCUUCAGGACACAG / GUCCAGAUGUCUUUGC [Temp1:BCN-haplomer-1:azide-haplomer-2 complex]”: the negative-log Kd (pKd) is 6.48.

The test system is the same in the next series. In words: ELISA. Conditions: 2'-O-methyl; 3' azide on strand 2; ELISA: streptavidin or anti-FAM plates, PBS/0.05% Tween 20 washes, BSA or Blotto block; EMSA: PBS, 1 h, room temperature, 20 uM oligo, 25 ng/uL IgG, 5% ….
Sequence “UUUUUCCUGUGUCCUGAAGAAAGCAAAGACAUCUGGACAU / GUCCAGAUGUCUUUGC [D2 template:azide-haplomer-2]” yielded a binding signal (% of full complex ELISA slope) of 0.

Staying with this series, now noted: 2'-O-methyl; ELISA: streptavidin or anti-FAM plates, PBS/0.05% Tween 20 washes, BSA or Blotto block; EMSA: PBS, 1 h, room temperature, 20 uM oligo, 25 ng/uL IgG, 5% ….
In turn, “UUUCUGAAGAAAUUUCCUGUGUC / UUUCUUCAG [T10 TempFlp:9-co]” came in with a binding signal (% of T2 ELISA slope) of 0. “UUUUUCCUGUGUCACAAUAGAG / CUCUAUUGU [T9 TempTr8:complementary 9-mer]” showed a binding signal (% of T2 ELISA slope) of 0. On to “UUUUUCCUGUGUCCUGAAGAAA / UUUCUUCAG [T3 TempTr2:9-co]”, for which the binding signal (% of full complex ELISA slope) was 100.

“UUUUUCCUGUGUCCUGAAGAAAGCA / UUUCUUCAG [T2 TempTr1:9-co]” had a binding signal (% of full complex ELISA slope) of 100. Sequence “UUUUUCCUGUGUCCUGAAGAAAGCA / UUUCUUCAGGACACAG [T1 TempTr1:oligo-1]” yielded a binding signal (% of full complex ELISA slope) of 100.

In turn, “UUUUUCCUGUGUCCUGAAGAAAGCAAAGACAUCUGGACAU / AUGUCUUUGCUUUCUUCAGG [D6 template:contig. complement-1]” yielded a binding signal (% of full complex ELISA slope) of 0.8. In turn, “UUUUUCCUGUGUCCUGAAGAAAGCAAAGACAUCUGGACAU / GUCCAGAUGUCUUUGC [D4 template:oligo-2]” came in with a binding signal (% of full complex ELISA slope) of 0. Sequence “UUUUUCCUGUGUCCUGAAGAAAGCAAAGACAUCUGGACAU / UUUCUUCAGGACACAG / GUCCAGAUGUCUUUGC [D5 template:oligo-1:oligo-2]” returned a binding signal (% of full complex ELISA slope) of 45. On the same count and under the same terms, to “UUUUUCCUGUGUCCUGAAGAAAGCAAAGACAUCUGGACAU / UUUCUUCAGGACACAG [D3 template:oligo-1]” belongs 76.1. On to “UUUUUCGUGUGUGCUGAAGAAA / UUUCUUCAG [T8 TempTr7:9-co]”, for which the binding signal (% of T2 ELISA slope) turned out to be 0. Still for that read-out and setting: to “UUUUUCUCUCUGGCUGAAGAAA / UUUCUUCAG [T5 TempTr4:9-co]” belongs 0; to “UUUUUCUGAAGAA / UUUCUUCAG [T4 TempTr3:9-co]”, 0.
